Measurements from patent US20180057567A1 (Sanofi, published 2018).

T1: CD3
T1 chain 1: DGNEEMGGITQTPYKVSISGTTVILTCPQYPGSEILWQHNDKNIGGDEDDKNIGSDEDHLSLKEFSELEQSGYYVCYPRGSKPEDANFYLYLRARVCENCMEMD
T1 chain 2: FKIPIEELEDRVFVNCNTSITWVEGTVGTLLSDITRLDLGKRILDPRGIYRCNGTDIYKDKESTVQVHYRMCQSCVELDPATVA

T2: CD123 (UniProt P26951 19-305, limits assumed)
T2 sequence (looked up): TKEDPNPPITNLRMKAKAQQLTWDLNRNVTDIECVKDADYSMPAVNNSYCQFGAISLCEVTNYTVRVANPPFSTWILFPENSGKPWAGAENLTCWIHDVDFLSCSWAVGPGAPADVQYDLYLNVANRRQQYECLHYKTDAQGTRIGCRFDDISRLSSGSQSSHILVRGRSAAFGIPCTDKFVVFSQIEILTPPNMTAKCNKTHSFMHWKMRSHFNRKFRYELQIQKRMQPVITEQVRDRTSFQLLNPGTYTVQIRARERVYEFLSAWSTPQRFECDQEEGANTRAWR

T3: recombinant human IL4 (human, UniProt P05112 25-153)
T3 construct: Bought protein
T3 sequence (looked up): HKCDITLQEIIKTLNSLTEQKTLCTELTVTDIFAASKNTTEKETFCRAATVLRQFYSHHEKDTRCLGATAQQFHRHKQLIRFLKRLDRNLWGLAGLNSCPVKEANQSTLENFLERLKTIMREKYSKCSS

B1: antibody in Bivalent Fab configuration, MCH2 domain of one Fab-like fragment (CD3) linked to a variable domain of the other Fab (CD123) (Example 5) (bispecific antibody)
light 1: DIVMTQTPLSLSVTPGQPASISCKSSQSLVHNNANTYLSWYLQKPGQSPQSLIYKVSNRFSGVPDRFSGSGSGTDFTLKISRVEAEDVGVYYCGQGTQYPFTFGSGTKVEIKRTVIAELPPKVSVFVPPRDGFFGNPRKSKLICQATGFSPRQIQVSWLREGKQVGSGVTTDQVQAEAKESGPTTYKVTSTLTIKESDWLGQSMFTCRVDHRGLTFQQNASSMCVP
heavy: QVQLVESGGGVVQPGRSLRLSCAASGFTFTKAWMHWVRQAPGKQLEWVAQIKDKSNSYATYYADSVKGRFTISRDDSKNTLYLQMNSLRAEDTAVYYCRGVYYALSPFDYWGQGTLVTVSSGGVIAELPPKVSVFVPPRDGFFGNPRKSKLICQATGFSPRQIQVSWLREGKQVGSGVTTDQVQAEAKESGPTTYKVTSTLTIKESDWLGQSMFTCRVDHRGLTFQQNASSMCVPGGGSEVQLVQSGAEVKKPGESLKISCKGSGYSFTDYYMKWARQMPGKGLEWMGDIIPSSGATFYNQKFKGQVTISADKSISTTYLQWSSLKASDTAMYYCARSHLLRASWFAYWGQGTMVTVSSASTKGPSVFPLAPSSKSTSGGTAALGCLVKDYFPEPVTVSWNSGALTSGVHTFPAVLQSSGLYSLSSVVTVPSSSLGTQTYICNVNHKPSNTKVDKKVEPKSCDKTHTHHHHHH
light 2: not shown
notes: also called bispecific bivalent Fab; bivalent bispecific Fab fragment
B2: bispecific Fab-like fragment in the CODV bivalent Fab configuration (ECH2), anti-IL13 (huBB13) x anti-IL4 (hu8D4-8) (Example 6) (bispecific antibody)
chain 1: EVQLKESGPGLVAPGGSLSITCTVSGFSLTDSSINWVRQPPGKGLEWLGMIWGDGRIDYADALKSRLSISKDSSKSQVFLEMTSLRTDDTATYYCARDGYFPYAMDFWGQGTSVTVSSSQVQLQQSGPELVKPGASVKISCKASGYSFTSYWIHWIKQRPGQGLEWIGMIDPSDGETRLNQRFQGRATLTVDESTSTAYMQLRSPTSEDSAVYYCTRLKEYGNYDSFYFDVWGAGTLVTVSSRTASTKGPVASRDFTPPTVKILQSSCDGGGHFPPTIQLLCLVSGYTPGTIQITWLEDGQVMDVDLSTASTTQEGELASTQSELTLSQKHWLSDRTYTCQVTYQGHTFEDSTKKCAGSHHHHHHHH
chain 2: DIQMTQSPASLSVSVGDTITLTCHASQNIDVWLSWFQQKPGNIPKLLIYKASNLHTGVPSRFSGSGSGTGFTLTISSLQPEDIATYYCQQAHSYPFTFGGGTKLEIKGQPKAAPDIVLTQSPASLAVSLGQRATISCRASESVDSYGQSYMHWYQQKAGQPPKLLIYLASNLESGVPARFSGSGSRTDFTLTIDPVQAEDAATYYCQQNAEDSRTFGGGTKLEIKTKGPSRTVASRDFTPPTVKILQSSCDGGGHFPPTIQLLCLVSGYTPGTIQITWLEDGQVMDVDLSTASTTQEGELASTQSELTLSQKHWLSDRTYTCQVTYQGHTFEDSTKKCA
notes: An 8x histidine tag was added for purification; also called CH2E-pseudo-CODV antibody
B3: F(ab')2-like antibody with ECH2 replacing the hinge region, anti-IL4 (hu8D4-8) CH1/kappa Fab and anti-IL13 (huBB13) MCH2 Fab (Example 7) (bispecific antibody)
heavy 1: VQLQQSGPELVKPGASVKISCKASGYSFTSYWIHWIKQRPGQGLEWIGMIDPSDGETRLNQRFQGRATLTVDESTSTAYMQLRSPTSEDSAVYYCTRLKEYGNYDSFYFDVWGAGTLVTVSSASTKGPSVFPLAPSSKSTSGGTAALGCLVKDYFPEPVTVSWNSGALTSGVHTFPAVLQSSGLYSLSSVVTVPSSSLGTQTYICNVNHKPSNTKVDKKVEPKSCGSGSGSVASRDFTPPTVKILQSSCDGGGHFPPTIQLLCLVSGYTPGTIQITWLEDGQVMDVDLSTASTTQEGELASTQSELTLSQKHWLSDRTYTCQVTYQGHTFEDSTKKCA
light 1: DIQMTQSPASLSVSVGDTITLTCHASQNIDVWLSWFQQKPGNIPKLLIYKASNLHTGVPSRFSGSGSGTGFTLTISSLQPEDIATYYCQQAHSYPFTFGGGTKLEIKRTVAAPSVFIFPPSDEQLKSGTASVVCLLNNFYPREAKVQWKVDNALQSGNSQESVTEQDSKDSTYSLSSTLTLSKADYEKHKVYACEVTHQGLSSPVTKSFNRGEC
heavy 2: EVQLKESGPGLVAPGGSLSITCTVSGFSLTDSSINWVRQPPGKGLEWLGMIWGDGRIDYADALKSRLSISKDSSKSQVFLEMTSLRTDDTATYYCARDGYFPYAMDFWGQGTSVTVSSGSGSGSVIAELPPKVSVFVPPRDGFFGNPRKSKLICQATGFSPRQIQVSWLREGKQVGSGVTTDQVQAEAKESGPTTYKVTSTLTIKESDWLGQSMFTCRVDHRGLTFQQQASSMCVPGSGSGSVASRDFTPPTVKILQSSCDGGGHFPPTIQLLCLVSGYTPGTIQITWLEDGQVMDVDLSTASTTQEGELASTQSELTLSQKHWLSDRTYTCQVTYQGHTFEDSTKKCAGSHHHHHHHH
light 2: DIVLTQSPASLAVSLGQRATISCRASESVDSYGQSYMHWYQQKAGQPPKLLIYLASNLESGVPARFSGSGSRTDFTLTIDPVQAEDAATYYCQQNAEDSRTFGGGTKLEIKRTVIAELPPKVSVFVPPRDGFFGNPRKSKLICQATGFSPRQIQVSWLREGKQVGSGVTTDQVQAEAKESGPTTYKVTSTLTIKESDWLGQSMFTCRVDHRGLTFQQQASSMCVP
notes: also called pseudo hinge-CH2E-hybrid-Fab2

Assays:
[1] = target: T1, CD3; experiment: SPR (Biacore), CD3 as analyte
[2] = target: T2, CD123; experiment: SPR (Biacore), CD123 as analyte
[3] = target: T3, recombinant human IL4; experiment: SPR (Biacore)

Binder	Kd [1]	koff [1]	kon [1]	Kd [2]	koff [2]	kon [2]	binding result [3]
B1	5.71 nM	0.0009 s⁻¹	158000 M⁻¹ s⁻¹	0.0838 nM	3.77e-05 s⁻¹	450000 M⁻¹ s⁻¹	–
B2	–	–	–	–	–	–	binds
B3	–	–	–	–	–	–	binds
